These results are taken from the RNAGym collection of RNA variant scans (doi:10.1073/pnas.2313332121).

B1: TPR t1 (parent)
chain: GACCAAUCUGCCCUCAGAGCUCGAGAACAUCUUCGGAUGCAGAGGAGGCAGGCUUCGGUGGCGCGAUAGCGCCAACGUCCUCAACCUCCAAUGCAUCCCACCACAUGAUGAUGCCUGAAGAGCCUUGGUUUUUUG

In this data set the parent is B1. Briefly: polymerase ribozyme fitness, log enrichment relative to wild type (log ratio); higher = more active; in vitro selection for triplet polymerase activity. The method, boiled down: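 Genotype fitness is the logarithm of its enrichment divided by wild-type enrichment, using inverse-variance-weighted averages of replicates. That logarithm is base 2. Enrichment was measured by Illumina sequencing of input and output libraries from one triplicate in vitro selection round, with frozen incubation at −7 °C, on PCR-built, transcribed mutant libraries of each subunit of a heterodimeric triplet polymerase ribozyme, retaining genotypes with ≥10 input reads and ≥1 read per output.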
With C73U U78A C88G G120U, the “polymerase ribozyme fitness (log ratio)” value was -1.15. For C73G G120A U129G, the “polymerase ribozyme fitness (log ratio)” value is -1.1. Then A74C U106A C123U, with 1.18. The same measure for C76G C82G G128U: -3.7. The same measure for G77C C88A: -0.0409; for U78C U109A: -5.34; for A74G C102G U132C: -5.92. On to C73U U81A, for which the “polymerase ribozyme fitness (log ratio)” value was -3.27. Consider G77U C123U, for which the “polymerase ribozyme fitness (log ratio)” value is 1.47. Then G77U C123G, with 1.23; and C73A C86U G128A, with -1.81; and C72U G77U, with -0.309. With A74U A111C, the “polymerase ribozyme fitness (log ratio)” value is -1.62.

Turning to C73U U87A A105U, the “polymerase ribozyme fitness (log ratio)” value is -1.83. On to A74U U87A, for which the “polymerase ribozyme fitness (log ratio)” value is -0.842. Then C72U G128U, with -1.48; and C72U C102A G120U U130G, with -2.46; and C79U C89U C102U G120C, with -2.83. Then C73G U129G, with -2.27; and C73U C89U C101U, with -0.461. The same measure for G77C U106A A111C C114G U131C: -5.23.

Consider C79G U96A, for which the “polymerase ribozyme fitness (log ratio)” value is -2.96. Then U78G C88U A91U A95U, with -3.4; and C73U C79U C104U, with -0.0392.

For C73U U125A, the “polymerase ribozyme fitness (log ratio)” value was -0.171. Then U78G C114U U129G, with -4.71; and C73G C85U G93U A95G C123A, with -3.28. As to C73U G120A, the “polymerase ribozyme fitness (log ratio)” value was 0.593. Then C79G C85G, with -3.02; and C79G C85A, with -3.62; and C72U U132C, with -0.841. The same measure for A74U A121U C124A: 1.47; for U78C G113A: -1.36; for G77U U132A: -0.53. The same measure for C72U G120A: 0.502; for C72U G120C: 0.644; for U78C C86A: -0.372. Consider C79A C94A, for which the “polymerase ribozyme fitness (log ratio)” value was -2.38.

As to U78A C79A A95C U133A, the “polymerase ribozyme fitness (log ratio)” value is -4.23. The same measure for U78C A105C A121C: -0.547. Regarding G77U C114G A121C, the “polymerase ribozyme fitness (log ratio)” value is -1.7. The same measure for G77C G117C: -4.29. The same measure for C73G C86G: -2.52; for C73G C86U: -1.29. Turning to C76U C79A G120C, the “polymerase ribozyme fitness (log ratio)” value came out at 0.319. The same measure for C73G C102A: -2.76; for G77A U78C C115G: -2.5. For A74U U126G, the “polymerase ribozyme fitness (log ratio)” value is -1.89. Then C72U G120A C124U, with 1.83; and U78G C88U U92G G120C U134G, with -1.71. The same measure for A74C U78G C80U C115A: -2.23; for C73A A74C: -0.174. Then U78G G113U, with -3.89. Turning to U78G G113A, the “polymerase ribozyme fitness (log ratio)” value was -1.05. The same measure for C79U U81A: -1.75.

Consider U78C C80G A121G, for which the “polymerase ribozyme fitness (log ratio)” value was -2.75. The same measure for C76U G120A: 1.69; for A74U G110C: -4.41; for C76U C123G: 0.558. Regarding U78C U112A, the “polymerase ribozyme fitness (log ratio)” value stood at 1.12.

A74U G93U G117C: the “polymerase ribozyme fitness (log ratio)” value is -5.37. Take A75G C82U A121G C124G: the “polymerase ribozyme fitness (log ratio)” value amounted to 1.16.

For C80A A84G C98U, the “polymerase ribozyme fitness (log ratio)” value was -6.69. Then C72U C114U, with -1.89; and A74C A84U, with -0.261; and C73A G117U, with -2.74. The same measure for G77C C94U: -0.725; for C73A A91U: -0.926. For C73A A91G, the “polymerase ribozyme fitness (log ratio)” value was -0.975. For U78A C89U C104U, the “polymerase ribozyme fitness (log ratio)” value was -1.1. As to C73A C85U U116G, the “polymerase ribozyme fitness (log ratio)” value is -2.18.

As to C73A U87A G120C C124A U132G, the “polymerase ribozyme fitness (log ratio)” value was -4.42.

Consider C73A U129C, for which the “polymerase ribozyme fitness (log ratio)” value was -0.459. Take C73A U87G: the “polymerase ribozyme fitness (log ratio)” value was -0.467. Regarding U78C U92G C114U, the “polymerase ribozyme fitness (log ratio)” value was -2.3. The same measure for U78G C80U G93U: -1.61. The same measure for A74C U130A: -0.25; for C73U C124A G127C: 1.61.

In the case of U78A U92G U125G, the “polymerase ribozyme fitness (log ratio)” value is -4.08. The same measure for U78C C94G A108G C114G U130G: -5.42. The same measure for C79U G113U U116A: -5.49; for G77U C124G: 1.96. Then A75U C76G C88A A90U C114U, with -2.85.

Regarding C73A C86U A100U C102A, the “polymerase ribozyme fitness (log ratio)” value was -2.87. With C73U A75G G77A U109G, the “polymerase ribozyme fitness (log ratio)” value was -6.15. Then A74U C114G C124A U125C, with -1.43; and C73A C86U, with 1.13; and G77U C88G, with -1.02.

For C76U G110C, the “polymerase ribozyme fitness (log ratio)” value is -4.7. The same measure for G77U A119G: -0.758; for C72U G93A C102U G117A: -4.25; for A74C C82A A105U: -2.29. On to C72U U96A, for which the “polymerase ribozyme fitness (log ratio)” value was -1.65.

For U78G U130G, the “polymerase ribozyme fitness (log ratio)” value was -0.347.

Take C76U G113U: the “polymerase ribozyme fitness (log ratio)” value is -2.36.

C76U U112A U116G: the “polymerase ribozyme fitness (log ratio)” value was -2.03. Then C72U G110A, with -1.45; and C72U G110U, with -1.17; and C73U G117A G128C, with -5.18. The same measure for G77A U116A: -4.07; for G77C C114A G127C: -2.76; for C73U U129A: -1.05. Then C73U U129G, with -0.782; and C79U G93A C102A, with -2.33; and C76A A91G C115A, with -0.508. Turning to C73G A103C, the “polymerase ribozyme fitness (log ratio)” value is -4.89.

A75G C114A: the “polymerase ribozyme fitness (log ratio)” value was -2.36. The same measure for U78A G117A: -1.76. Then A75U C99U U109G C115U U116A, with -7.29; and C73A C124G, with 0.687; and C79U U106A U116C U126C, with -1.17. The same measure for C73G C115G: -0.331; for C73G C115U: -1.97. In the case of C73G C104A, the “polymerase ribozyme fitness (log ratio)” value was -1.94. The same measure for C73A C82U: -0.0503. The same measure for U78C C88G: -0.636; for C79A U129A: -2.44. With U78G G113A C124G, the “polymerase ribozyme fitness (log ratio)” value was -0.667. Then U78A C82G C115A U130A, with -0.912; and G77A A83C C94U C115G U116C U125G, with -4.83.

Consider A74U C101U G113A C123G, for which the “polymerase ribozyme fitness (log ratio)” value was -1.64.

Turning to G77U A91U U132A, the “polymerase ribozyme fitness (log ratio)” value is -2.14. Then C73G A90G C104U U112C A121U U130C, with 1.89.

Turning to C72U G120C U131G, the “polymerase ribozyme fitness (log ratio)” value worked out at 0.516. Consider U78A G107C, for which the “polymerase ribozyme fitness (log ratio)” value is -6.06. Then C73G C101U U133A, with -1.03; and C73U U106A, with -0.212. Consider C76A G93C C94A U112G, for which the “polymerase ribozyme fitness (log ratio)” value is -4.68. As for G77A C79U C124A, the “polymerase ribozyme fitness (log ratio)” value came out at 1.87.

As for C79A G113C, the “polymerase ribozyme fitness (log ratio)” value is -3.64. Then C76U A105C, with -2.5; and C76G C123U, with 1.06; and C76G U81C C94A G117A, with -2.22.

Turning to A74C G77C, the “polymerase ribozyme fitness (log ratio)” value was -0.117. The same measure for A75U C99U: -3.69. With C73U G127U, the “polymerase ribozyme fitness (log ratio)” value is -0.489. Then C73U G127C, with -0.681; and C76U A90G A105U, with -1.84. In the case of C72U C102G, the “polymerase ribozyme fitness (log ratio)” value was -5.51.

As for C72U C102A, the “polymerase ribozyme fitness (log ratio)” value was -1.81. The same measure for C73A C104U U130G U132C: 1.03; for C73G U133G: -1.21; for U78A U130G: -0.269.

With C73U U126A, the “polymerase ribozyme fitness (log ratio)” value was -1.7. In the case of C72U C101G G117U, the “polymerase ribozyme fitness (log ratio)” value is -3.6.

As for C79G C82U U130A, the “polymerase ribozyme fitness (log ratio)” value is -2.13. The same measure for U78G C89A G117A: -4.25; for G77U U78C A95U C123G: 0.706; for A74G G77U C123U: 0.945. Regarding G77C C114A C124U, the “polymerase ribozyme fitness (log ratio)” value is -2.41.

For C73A C123A, the “polymerase ribozyme fitness (log ratio)” value is 1.63. The same measure for C73A C123G: 1.74; for C73U C97U C102A U130C: -2.5. Then C73U U96C C99U, with -3.39; and C73A U106G G110C, with -4.6. Then A74U C88G U112G U132G G135A, with -0.922; and C79U C94U C98U, with -1.64; and C76A G117A C124A, with -0.549. As for C76U C94A U106C U112C, the “polymerase ribozyme fitness (log ratio)” value stood at 0.627. The same measure for C76G G93A C104U U133A: -0.348; for U78G G110U G127U: -2.47. Then U78G G93A G120U, with -0.265; and C72U U129G, with -1.46; and C72U U109A, with -5.61.

In the case of C73A U126A, the “polymerase ribozyme fitness (log ratio)” value is -1.73. Then G77U C89U A91U U116C G120C G135A, with -2.85. The same measure for C73G C94A C102U: -3.82.
